# Source: the supplement of paper PMC12338614
# ± gives the uncertainty stated by the source.
# B1: library; numbered along this chain (parent)
# chain: MEVVDPQQLGMFTEGELMSVGMDTFIHRIDSTEVIYQPRRKRAKLIGKYLMGDLLGEGSYGKVKEVLDSETLCRRAVKILKKKKLRRIPNGEANVKKEIQLLRRLRHKNVIQLVDVLYNEEKQKMYMVMEYCVCGMQEMLDSVPEKRFPVCQAHGYFCQLIDGLEYLHSQGIVHKDIKPGNLLLTTGGTLKISDLGVAEALHPFAADDTCRTSQGSPAFQPPEIANGLDTFSGFKVDIWSAGVTLYNITTGLYPFEGDNIYKLFENIGKGSYAIPGDCGPPLSDLLKGMLEYEPAKRFSIRQIRQHSWFRKKHPPAEAPVPIPPSPDTKDRWRSMTVVPYLEDLHGADEDEDLFDIEDDIIYTQDFTVPGQVPEEEASHNGQRRGLPKAVCMNGTEAAQLSTKSRAEGRAPNPARKACSASSKIRRLSACKQQ
# Variants of: B1
# Experiment: STK11 functional score (HeLa growth suppression), rescaled enrichment; synonymous median = 1, nonsense median = 0 (normalised score)
# Settings: with HeLa; variant type: missense
# Method: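 Deep mutational scan (TileSeq/POPCode codon randomisation) of full-length codon-optimised STK11 cDNA integrated at a Bxb1 landing pad (AAVS1) in HeLa cells. Restoring functional STK11 suppresses HeLa proliferation. Variant frequencies were measured by NGS before and after about two weeks of growth. The error-corrected enrichment log-ratio was rescaled so that synonymous median = 1 and nonsense median = 0, scores above 1 were compressed, and codon-level and three biological replicate scores were combined; error is the bootstrapped standard error. Scale: synonymous median = 1, nonsense median = 0; below 0.5 = damaging.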
row,Variant,STK11 functional score
1,MEVVDMQQLGMFTEGELMSVGMDTFIHRIDSTEVIYQPRRKRAKLIGKYLMGDLLGEGSYGKVKEVLDSETLCRRAVKILKKKKLRRIPNGEANVKKEIQLLRRLRHKNVIQLVDVLYNEEKQKMYMVMEYCVCGMQEMLDSVPEKRFPVCQAHGYFCQLIDGLEYLHSQGIVHKDIKPGNLLLTTGGTLKISDLGVAEALHPFAADDTCRTSQGSPAFQPPEIANGLDTFSGFKVDIWSAGVTLYNITTGLYPFEGDNIYKLFENIGKGSYAIPGDCGPPLSDLLKGMLEYEPAKRFSIRQIRQHSWFRKKHPPAEAPVPIPPSPDTKDRWRSMTVVPYLEDLHGADEDEDLFDIEDDIIYTQDFTVPGQVPEEEASHNGQRRGLPKAVCMNGTEAAQLSTKSRAEGRAPNPARKACSASSKIRRLSACKQQ [P6M],0.679 ± 0.19
2,MEVVDYQQLGMFTEGELMSVGMDTFIHRIDSTEVIYQPRRKRAKLIGKYLMGDLLGEGSYGKVKEVLDSETLCRRAVKILKKKKLRRIPNGEANVKKEIQLLRRLRHKNVIQLVDVLYNEEKQKMYMVMEYCVCGMQEMLDSVPEKRFPVCQAHGYFCQLIDGLEYLHSQGIVHKDIKPGNLLLTTGGTLKISDLGVAEALHPFAADDTCRTSQGSPAFQPPEIANGLDTFSGFKVDIWSAGVTLYNITTGLYPFEGDNIYKLFENIGKGSYAIPGDCGPPLSDLLKGMLEYEPAKRFSIRQIRQHSWFRKKHPPAEAPVPIPPSPDTKDRWRSMTVVPYLEDLHGADEDEDLFDIEDDIIYTQDFTVPGQVPEEEASHNGQRRGLPKAVCMNGTEAAQLSTKSRAEGRAPNPARKACSASSKIRRLSACKQQ [P6Y],1.67 ± 0.12
3,MEVVDSQQLGMFTEGELMSVGMDTFIHRIDSTEVIYQPRRKRAKLIGKYLMGDLLGEGSYGKVKEVLDSETLCRRAVKILKKKKLRRIPNGEANVKKEIQLLRRLRHKNVIQLVDVLYNEEKQKMYMVMEYCVCGMQEMLDSVPEKRFPVCQAHGYFCQLIDGLEYLHSQGIVHKDIKPGNLLLTTGGTLKISDLGVAEALHPFAADDTCRTSQGSPAFQPPEIANGLDTFSGFKVDIWSAGVTLYNITTGLYPFEGDNIYKLFENIGKGSYAIPGDCGPPLSDLLKGMLEYEPAKRFSIRQIRQHSWFRKKHPPAEAPVPIPPSPDTKDRWRSMTVVPYLEDLHGADEDEDLFDIEDDIIYTQDFTVPGQVPEEEASHNGQRRGLPKAVCMNGTEAAQLSTKSRAEGRAPNPARKACSASSKIRRLSACKQQ [P6S],1.52 ± 0.17
4,MEVVDLQQLGMFTEGELMSVGMDTFIHRIDSTEVIYQPRRKRAKLIGKYLMGDLLGEGSYGKVKEVLDSETLCRRAVKILKKKKLRRIPNGEANVKKEIQLLRRLRHKNVIQLVDVLYNEEKQKMYMVMEYCVCGMQEMLDSVPEKRFPVCQAHGYFCQLIDGLEYLHSQGIVHKDIKPGNLLLTTGGTLKISDLGVAEALHPFAADDTCRTSQGSPAFQPPEIANGLDTFSGFKVDIWSAGVTLYNITTGLYPFEGDNIYKLFENIGKGSYAIPGDCGPPLSDLLKGMLEYEPAKRFSIRQIRQHSWFRKKHPPAEAPVPIPPSPDTKDRWRSMTVVPYLEDLHGADEDEDLFDIEDDIIYTQDFTVPGQVPEEEASHNGQRRGLPKAVCMNGTEAAQLSTKSRAEGRAPNPARKACSASSKIRRLSACKQQ [P6L],0.99 ± 0.12
5,MEVVDVQQLGMFTEGELMSVGMDTFIHRIDSTEVIYQPRRKRAKLIGKYLMGDLLGEGSYGKVKEVLDSETLCRRAVKILKKKKLRRIPNGEANVKKEIQLLRRLRHKNVIQLVDVLYNEEKQKMYMVMEYCVCGMQEMLDSVPEKRFPVCQAHGYFCQLIDGLEYLHSQGIVHKDIKPGNLLLTTGGTLKISDLGVAEALHPFAADDTCRTSQGSPAFQPPEIANGLDTFSGFKVDIWSAGVTLYNITTGLYPFEGDNIYKLFENIGKGSYAIPGDCGPPLSDLLKGMLEYEPAKRFSIRQIRQHSWFRKKHPPAEAPVPIPPSPDTKDRWRSMTVVPYLEDLHGADEDEDLFDIEDDIIYTQDFTVPGQVPEEEASHNGQRRGLPKAVCMNGTEAAQLSTKSRAEGRAPNPARKACSASSKIRRLSACKQQ [P6V],1.5 ± 0.15
6,MEVVDEQQLGMFTEGELMSVGMDTFIHRIDSTEVIYQPRRKRAKLIGKYLMGDLLGEGSYGKVKEVLDSETLCRRAVKILKKKKLRRIPNGEANVKKEIQLLRRLRHKNVIQLVDVLYNEEKQKMYMVMEYCVCGMQEMLDSVPEKRFPVCQAHGYFCQLIDGLEYLHSQGIVHKDIKPGNLLLTTGGTLKISDLGVAEALHPFAADDTCRTSQGSPAFQPPEIANGLDTFSGFKVDIWSAGVTLYNITTGLYPFEGDNIYKLFENIGKGSYAIPGDCGPPLSDLLKGMLEYEPAKRFSIRQIRQHSWFRKKHPPAEAPVPIPPSPDTKDRWRSMTVVPYLEDLHGADEDEDLFDIEDDIIYTQDFTVPGQVPEEEASHNGQRRGLPKAVCMNGTEAAQLSTKSRAEGRAPNPARKACSASSKIRRLSACKQQ [P6E],1.24 ± 0.47
7,MEVVDTQQLGMFTEGELMSVGMDTFIHRIDSTEVIYQPRRKRAKLIGKYLMGDLLGEGSYGKVKEVLDSETLCRRAVKILKKKKLRRIPNGEANVKKEIQLLRRLRHKNVIQLVDVLYNEEKQKMYMVMEYCVCGMQEMLDSVPEKRFPVCQAHGYFCQLIDGLEYLHSQGIVHKDIKPGNLLLTTGGTLKISDLGVAEALHPFAADDTCRTSQGSPAFQPPEIANGLDTFSGFKVDIWSAGVTLYNITTGLYPFEGDNIYKLFENIGKGSYAIPGDCGPPLSDLLKGMLEYEPAKRFSIRQIRQHSWFRKKHPPAEAPVPIPPSPDTKDRWRSMTVVPYLEDLHGADEDEDLFDIEDDIIYTQDFTVPGQVPEEEASHNGQRRGLPKAVCMNGTEAAQLSTKSRAEGRAPNPARKACSASSKIRRLSACKQQ [P6T],0.874 ± 0.12
8,MEVVDCQQLGMFTEGELMSVGMDTFIHRIDSTEVIYQPRRKRAKLIGKYLMGDLLGEGSYGKVKEVLDSETLCRRAVKILKKKKLRRIPNGEANVKKEIQLLRRLRHKNVIQLVDVLYNEEKQKMYMVMEYCVCGMQEMLDSVPEKRFPVCQAHGYFCQLIDGLEYLHSQGIVHKDIKPGNLLLTTGGTLKISDLGVAEALHPFAADDTCRTSQGSPAFQPPEIANGLDTFSGFKVDIWSAGVTLYNITTGLYPFEGDNIYKLFENIGKGSYAIPGDCGPPLSDLLKGMLEYEPAKRFSIRQIRQHSWFRKKHPPAEAPVPIPPSPDTKDRWRSMTVVPYLEDLHGADEDEDLFDIEDDIIYTQDFTVPGQVPEEEASHNGQRRGLPKAVCMNGTEAAQLSTKSRAEGRAPNPARKACSASSKIRRLSACKQQ [P6C],1.1 ± 0.49
9,MEVVDGQQLGMFTEGELMSVGMDTFIHRIDSTEVIYQPRRKRAKLIGKYLMGDLLGEGSYGKVKEVLDSETLCRRAVKILKKKKLRRIPNGEANVKKEIQLLRRLRHKNVIQLVDVLYNEEKQKMYMVMEYCVCGMQEMLDSVPEKRFPVCQAHGYFCQLIDGLEYLHSQGIVHKDIKPGNLLLTTGGTLKISDLGVAEALHPFAADDTCRTSQGSPAFQPPEIANGLDTFSGFKVDIWSAGVTLYNITTGLYPFEGDNIYKLFENIGKGSYAIPGDCGPPLSDLLKGMLEYEPAKRFSIRQIRQHSWFRKKHPPAEAPVPIPPSPDTKDRWRSMTVVPYLEDLHGADEDEDLFDIEDDIIYTQDFTVPGQVPEEEASHNGQRRGLPKAVCMNGTEAAQLSTKSRAEGRAPNPARKACSASSKIRRLSACKQQ [P6G],0.386 ± 0.15
10,MEVVDRQQLGMFTEGELMSVGMDTFIHRIDSTEVIYQPRRKRAKLIGKYLMGDLLGEGSYGKVKEVLDSETLCRRAVKILKKKKLRRIPNGEANVKKEIQLLRRLRHKNVIQLVDVLYNEEKQKMYMVMEYCVCGMQEMLDSVPEKRFPVCQAHGYFCQLIDGLEYLHSQGIVHKDIKPGNLLLTTGGTLKISDLGVAEALHPFAADDTCRTSQGSPAFQPPEIANGLDTFSGFKVDIWSAGVTLYNITTGLYPFEGDNIYKLFENIGKGSYAIPGDCGPPLSDLLKGMLEYEPAKRFSIRQIRQHSWFRKKHPPAEAPVPIPPSPDTKDRWRSMTVVPYLEDLHGADEDEDLFDIEDDIIYTQDFTVPGQVPEEEASHNGQRRGLPKAVCMNGTEAAQLSTKSRAEGRAPNPARKACSASSKIRRLSACKQQ [P6R],1.29 ± 0.12
11,MEVVDFQQLGMFTEGELMSVGMDTFIHRIDSTEVIYQPRRKRAKLIGKYLMGDLLGEGSYGKVKEVLDSETLCRRAVKILKKKKLRRIPNGEANVKKEIQLLRRLRHKNVIQLVDVLYNEEKQKMYMVMEYCVCGMQEMLDSVPEKRFPVCQAHGYFCQLIDGLEYLHSQGIVHKDIKPGNLLLTTGGTLKISDLGVAEALHPFAADDTCRTSQGSPAFQPPEIANGLDTFSGFKVDIWSAGVTLYNITTGLYPFEGDNIYKLFENIGKGSYAIPGDCGPPLSDLLKGMLEYEPAKRFSIRQIRQHSWFRKKHPPAEAPVPIPPSPDTKDRWRSMTVVPYLEDLHGADEDEDLFDIEDDIIYTQDFTVPGQVPEEEASHNGQRRGLPKAVCMNGTEAAQLSTKSRAEGRAPNPARKACSASSKIRRLSACKQQ [P6F],0.754 ± 0.11
12,MEVVDDQQLGMFTEGELMSVGMDTFIHRIDSTEVIYQPRRKRAKLIGKYLMGDLLGEGSYGKVKEVLDSETLCRRAVKILKKKKLRRIPNGEANVKKEIQLLRRLRHKNVIQLVDVLYNEEKQKMYMVMEYCVCGMQEMLDSVPEKRFPVCQAHGYFCQLIDGLEYLHSQGIVHKDIKPGNLLLTTGGTLKISDLGVAEALHPFAADDTCRTSQGSPAFQPPEIANGLDTFSGFKVDIWSAGVTLYNITTGLYPFEGDNIYKLFENIGKGSYAIPGDCGPPLSDLLKGMLEYEPAKRFSIRQIRQHSWFRKKHPPAEAPVPIPPSPDTKDRWRSMTVVPYLEDLHGADEDEDLFDIEDDIIYTQDFTVPGQVPEEEASHNGQRRGLPKAVCMNGTEAAQLSTKSRAEGRAPNPARKACSASSKIRRLSACKQQ [P6D],1.66 ± 0.16
13,MEVVDWQQLGMFTEGELMSVGMDTFIHRIDSTEVIYQPRRKRAKLIGKYLMGDLLGEGSYGKVKEVLDSETLCRRAVKILKKKKLRRIPNGEANVKKEIQLLRRLRHKNVIQLVDVLYNEEKQKMYMVMEYCVCGMQEMLDSVPEKRFPVCQAHGYFCQLIDGLEYLHSQGIVHKDIKPGNLLLTTGGTLKISDLGVAEALHPFAADDTCRTSQGSPAFQPPEIANGLDTFSGFKVDIWSAGVTLYNITTGLYPFEGDNIYKLFENIGKGSYAIPGDCGPPLSDLLKGMLEYEPAKRFSIRQIRQHSWFRKKHPPAEAPVPIPPSPDTKDRWRSMTVVPYLEDLHGADEDEDLFDIEDDIIYTQDFTVPGQVPEEEASHNGQRRGLPKAVCMNGTEAAQLSTKSRAEGRAPNPARKACSASSKIRRLSACKQQ [P6W],0.513 ± 0.074
14,MEVVDIQQLGMFTEGELMSVGMDTFIHRIDSTEVIYQPRRKRAKLIGKYLMGDLLGEGSYGKVKEVLDSETLCRRAVKILKKKKLRRIPNGEANVKKEIQLLRRLRHKNVIQLVDVLYNEEKQKMYMVMEYCVCGMQEMLDSVPEKRFPVCQAHGYFCQLIDGLEYLHSQGIVHKDIKPGNLLLTTGGTLKISDLGVAEALHPFAADDTCRTSQGSPAFQPPEIANGLDTFSGFKVDIWSAGVTLYNITTGLYPFEGDNIYKLFENIGKGSYAIPGDCGPPLSDLLKGMLEYEPAKRFSIRQIRQHSWFRKKHPPAEAPVPIPPSPDTKDRWRSMTVVPYLEDLHGADEDEDLFDIEDDIIYTQDFTVPGQVPEEEASHNGQRRGLPKAVCMNGTEAAQLSTKSRAEGRAPNPARKACSASSKIRRLSACKQQ [P6I],1.61 ± 0.19
